Consider five substances from the supplement of paper PMC5998384.

In data set [1] the test system is HeLa Kyoto. The data set is described as follows: solubility in G1/S (NP-40 vs SDS abundance) (log2 ratio); higher = more soluble. As to conditions: cell cycle stage: G1/S.
Data set [2] relates to HeLa Kyoto. The data set can be described thus: solubility change mitosis vs G1/S (difference of NP-40 vs SDS log2 ratios) (log2 ratio difference); higher = more soluble in mitosis.
The test system of data set [3] is HeLa Kyoto. The data set is described as follows: thermal stability score vs G1/S (z-score of summed log2 fold changes over temperatures); higher = more thermally stable than in G1/S.
Setting [4] is: cell cycle stage: early G1 (4.5 h after nocodazole release).
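Throughout, for solubility change mitosis vs G1/S (difference of NP-40 vs SDS log2 ratios): synchronized HeLa Kyoto cells (double thymidine block for G1/S, nocodazole release for mitosis), protein amounts in NP-40 versus SDS lysates quantified by mass spectrometry, three biological replicates.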
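Throughout, for solubility in G1/S (NP-40 vs SDS abundance): HeLa Kyoto cells arrested at G1/S by double thymidine block, proteins quantified by TMT10plex mass spectrometry in mild NP-40 versus SDS extracts, three biological replicates.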
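Throughout, for thermal stability score vs G1/S (z-score of summed log2 fold changes over temperatures): synchronized HeLa Kyoto cells, proteins quantified by TMT10plex mass spectrometry, three biological replicates, mitosis taken 0.5 h after nocodazole release, G1/S directly after double thymidine block.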

“MDSQELKTLINYYCQERYFHHVLLVASEGIKRYGSDPVFRFYHAYGTLMEGKTQEALREFEAIKNKQDVSLCSLLALIYAHKMSPNPDREAILESDARVKEQRKGAGEKALYHAGLFLWHIGRHDKAREYIDRMIKISDGSKQGHVLKAWLDITRGKEPYTKKALKYFEEGLQDGNDTFALLGKAQCLEMRQNYSGALETVNQIIVNFPSFLPAFVKKMKLQLALQDWDQTVETAQRLLLQDSQNVEALRMQALYYVCREGDIEKASTKLENLGNTLDAMEPQNAQLFYNITLAFSRTCGRSQLILQKIQTLLERAFSLNPQQSEFATELGYQMILQGRVKEALKWYKTAMTLDETSVSALVGFIQCQLIEGQLQDADQQLEFLNEIQQSIGKSAELIYLHAVLAMKKNKRQEEVINLLNDVLDTHFSQLEGLPLGIQYFEKLNPDFLLEIVMEYLSFCPMQPASPGQPLCPLLRRCISVLETVVRTVPGLLQTVFLIAKVKYLSGDIEAAFNNLQHCLEHNPSYADAHLLLAQVYLSQEKVKLCSQSLELCLSYDFKVRDYPLYHLIKAQSQKKMGEIADAIKTLHMAMSLPGMKRIGASTKSKDRKTEVDTSHRLSIFLELIDVHRLNGEQHEATKVLQDAIHEFSGTSEEVRVTIANADLALAQGDIERALSILQNVTAEQPYFIEAREKMADIYLKHRKDKMLYITCFREIAERMANPRSFLLLGDAYMNILEPEEAIVAYEQALNQNPKDGTLASKMGKALIKTHNYSMAITYYEAALKTGQKNYLCYDLAELLLKLKWYDKAEKVLQHALAHEPVNELSALMEDGRCQVLLAKVYSKMEKLGDAITALQQARELQARVLKRVQMEQPDAVPAQKHLAAEICAEIAKHSVAQRDYEKAIKFYREALVHCETDNKIMLELARLYLAQDDPDSCLRQCALLLQSDQDNEAATMMMADLMFRKQDYEQAVFHLQQLLERKPDNYMTLSRLIDLLRRCGKLEDVPRFFSMAEKRNSRAKLEPGFQYCKGLYLWYTGEPNDALRHFNKARKDRDWGQNALYNMIEICLNPDNETVGGEVFENLDGDLGNSTEKQESVQLAVRTAEKLLKELKPQTVQGHVQLRIMENYCLMATKQKSNVEQALNTFTEIAASEKEHIPALLGMATAYMILKQTPRARNQLKRIAKMNWNAIDAEEFEKSWLLLADIYIQSAKYDMAEDLLKRCLRHNRSCCKAYEYMGYIMEKEQAYTDAALNYEMAWKYSNRTNPAVGYKLAFNYLKAKRYVDSIDICHQVLEAHPTYPKIRKDILDKARASLRP [TTC21B]”: the “solubility in G1/S (log2)” value in the data set with HeLa Kyoto [1] is -0.116. The “solubility change mitosis (log2)” value in the data set on HeLa Kyoto [2] is -0.211. Further, the figures for the thermal stability score in the data set with HeLa Kyoto [3] (setting [4]) and with HeLa Kyoto [3] (cell cycle stage: mitosis) were 1.06 and 0.205, respectively.

In the case of “MEASLGIQMDEPMAFSPQRDRFQAEGSLKKNEQNFKLAGVKKDIEKLYEAVPQLSNVFKIEDKIGEGTFSSVYLATAQLQVGPEEKIALKHLIPTSHPIRIAAELQCLTVAGGQDNVMGVKYCFRKNDHVVIAMPYLEHESFLDILNSLSFQEVREYMLNLFKALKRIHQFGIVHRDVKPSNFLYNRRLKKYALVDFGLAQGTHDTKIELLKFVQSEAQQERCSQNKSHIITGNKIPLSGPVPKELDQQSTTKASVKRPYTNAQIQIKQGKDGKEGSVGLSVQRSVFGERNFNIHSSISHESPAVKLMKQSKTVDVLSRKLATKKKAISTKVMNSAVMRKTASSCPASLTCDCYATDKVCSICLSRRQQVAPRAGTPGFRAPEVLTKCPNQTTAIDMWSAGVIFLSLLSGRYPFYKASDDLTALAQIMTIRGSRETIQAAKTFGKSILCSKEVPAQDLRKLCERLRGMDSSTPKLTSDIQGHASHQPAISEKTDHKASCLVQTPPGQYSGNSFKKGDSNSCEHCFDEYNTNLEGWNEVPDEAYDLLDKLLDLNPASRITAEEALLHPFFKDMSL [CDC7]”, the “solubility in G1/S (log2)” value in the data set on HeLa Kyoto [1] is -0.0102. For the same substance, the “solubility change mitosis (log2)” value with HeLa Kyoto [2] is 0.0299. In addition, the thermal stability score was 2.43 in the data set with HeLa Kyoto [3] (setting [4]) and 2.74 with HeLa Kyoto [3] (cell cycle stage: mitosis).

On to MED13, for which the “solubility in G1/S (log2)” value in the data set with HeLa Kyoto [1] was -0.213. The “solubility change mitosis (log2)” value in the data set with HeLa Kyoto [2] is -0.112. In addition, the thermal stability score is -0.573 in the data set on HeLa Kyoto [3] (setting [4]) and -0.435 in the data set with HeLa Kyoto [3] (cell cycle stage: mitosis).

In the case of “MEEELQHSHCVNCVSRRCMTRPEPGISCDLIGCPLVCGAVFHSCKADEHRLLCPFERVPCLNSDFGCPFTMARNKVAEHLEMCPASVVCCTMEWNRWPVSYADRKSYENLSRDVDEVAQLDMALALQDQRMLLESLKVATMMSKATDKVSKPREQISVKSSVPEIPHANGLVSVDEESYGALYQATVETTRSLAAALDILNTATRDIGMLNTSVPNDMDEQQNARESLEDQNLKDQDHLYEEEIGAVGGIDYNDTNQNAQSEQNGSSDLLCDLNTSSYDTSALCNGFPLENICTQVIDQNQNLHGDSKQSNLTNGDCVASSDGTSKPSSSLAVAAQLREIIPSSALPNGTVQHILMPDDEGEGELCWKKVDLGDVKNVDVLSFSHAPSFNFLSNSCWSKPKEDKAVDTSDLEVAEDPMGLQGIDLITAALLFCLGDSPGGRGISDSRMADIYHIDVGTQTFSLPSAILATSTMVGEIASASACDHANPQLSNPSPFQTLGLDLVLECVARYQPKQRSMFTFVCGQLFRRKEFSSHFKNVHGDIHAGLNGWMEQRCPLAYYGCTYSQRRFCPSIQGAKIIHDRHLRSFGVQPCVSTVLVEPARNCVLGLHNDHLSSLPFEVLQHIAGFLDGFSLCQLSCVSKLMRDVCGSLLQSRGMVILQWGKRKYPEGNSSWQIKEKVWRFSTAFCSVNEWKFADILSMADHLKKCSYNVVEKREEAIPLPCMCVTRELTKEGRSLRSVLKPVL [FBXO30]”, the “solubility in G1/S (log2)” value with HeLa Kyoto [1] is -0.564. In the data set on HeLa Kyoto [2], the “solubility change mitosis (log2)” value stood at 0.106. Also, the values for the thermal stability score with HeLa Kyoto [3] (setting [4]) and in the data set with HeLa Kyoto [3] (cell cycle stage: mitosis) were 0.306 and 1.03, respectively.

Regarding “MELKVWVDGVQRIVCGVTEVTTCQEVVIALAQAIGRTGRYTLIEKWRDTERHLAPHENPIISLNKWGQYASDVQLILRRTGPSLSERPTSDSVARIPERTLYRQSLPPLAKLRPQIDKSIKRREPKRKSLTFTGGAKGLMDIFGKGKETEFKQKVLNNCKTTADELKKLIRLQTEKLQSIEKQLESNEIEIRFWEQKYNSNLEEEIVRLEQKIKRNDVEIEEEEFWENELQIEQENEKQLKDQLQEIRQKITECENKLKDYLAQIRTMESGLEAEKLQREVQEAQVNEEEVKGKIGKVKGEIDIQGQQSLRLENGIKAVERSLGQATKRLQDKEQELEQLTKELRQVNLQQFIQQTGTKVTVLPAEPIEIEASHADIEREAPFQSGSLKRPGSSRQLPSNLRILQNPISSGFNPEGIYV [RASSF8]”, in the data set with HeLa Kyoto [1], the “solubility in G1/S (log2)” value worked out at 0.445. Moreover, the “solubility change mitosis (log2)” value in the data set with HeLa Kyoto [2] turned out to be 0.00342. For the same substance, the thermal stability score with HeLa Kyoto [3] (setting [4]) was 0.245; with HeLa Kyoto [3] (cell cycle stage: mitosis), -0.268.
